The record followed here is patent publication US20230265151A1, “GIP/GLP1 CO-AGONIST COMPOUNDS” (priority 2020, published 2023).

T1: human GIP receptor (human, UniProt P48546 22-466)
T1 sequence (looked up): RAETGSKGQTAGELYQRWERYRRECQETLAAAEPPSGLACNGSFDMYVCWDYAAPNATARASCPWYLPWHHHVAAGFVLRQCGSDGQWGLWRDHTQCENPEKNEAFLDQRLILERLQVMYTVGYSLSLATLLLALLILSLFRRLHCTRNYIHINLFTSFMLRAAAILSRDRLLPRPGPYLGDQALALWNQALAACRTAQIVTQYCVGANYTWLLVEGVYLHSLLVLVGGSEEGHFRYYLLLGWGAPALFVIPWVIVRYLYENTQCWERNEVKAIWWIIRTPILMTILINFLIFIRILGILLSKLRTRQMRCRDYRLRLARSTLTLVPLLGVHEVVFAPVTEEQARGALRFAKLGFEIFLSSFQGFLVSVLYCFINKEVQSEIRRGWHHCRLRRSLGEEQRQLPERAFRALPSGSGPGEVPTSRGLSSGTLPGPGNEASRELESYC

B1: Example 67 (peptide)
peptide: YXEGTXTSDXSIXLDXKAQXEFIXKLIEGGPSSGAPPPS
modifications: Aib2, αMeF(2F)6, 4Pal10, αMeL13, Orn16, Aib20, D-Glu24, K17 and K25: K(AEEA2-(γ-Glu)-(4-(4-tert-butylphenyl)butanoyl)), C-terminal NH2
B2: Example 69 (peptide)
peptide: B1 peptide with K17I, E21K, X24K, K25X
modifications: Aib2, αMeF(2F)6, 4Pal10, αMeL13, Orn16, Aib20, αMeY25, K21 and K24: K(AEEA2-(γ-Glu)-CO-(CH2)12-CO2H), C-terminal NH2
B3: Example 8 (peptide)
peptide: B1 peptide with K25X, P31K
modifications: Aib2, αMeF(2F)6, 4Pal10, αMeL13, Orn16, Aib20, D-Glu24, αMeY25, K17 and K31: K(AEEA2-(γ-Glu)-CO-(CH2)12-CH3), C-terminal NH2
B4: Example 70 (peptide)
peptide: B1 peptide with K17I, X24K, K25X, E28K
modifications: Aib2, αMeF(2F)6, 4Pal10, αMeL13, Orn16, Aib20, αMeY25, K24 and K28: K(AEEA2-(γ-Glu)-CO-(CH2)12-CO2H), C-terminal NH2
B5: Example 74 (peptide)
peptide: B1 peptide with K17I, E21K, K25X, P31K
modifications: Aib2, αMeF(2F)6, 4Pal10, αMeL13, Orn16, Aib20, D-Glu24, αMeY25, K21 and K31: K(AEEA2-(γ-Glu)-CO-(CH2)12-CO2H), C-terminal NH2
B6: Example 68 (peptide)
peptide: B1 peptide with X24E
modifications: Aib2, αMeF(2F)6, 4Pal10, αMeL13, Orn16, Aib20, K17 and K25: K(AEEA2-(γ-Glu)-(4-(4-tert-butylphenyl)butanoyl)), C-terminal NH2
B7: Example 73 (peptide)
peptide: B1 peptide with K17I, E21K, K25X, E28K
modifications: Aib2, αMeF(2F)6, 4Pal10, αMeL13, Orn16, Aib20, D-Glu24, αMeY25, K21 and K28: K(AEEA2-(γ-Glu)-CO-(CH2)12-CO2H), C-terminal NH2
B8: Example 79 (peptide)
peptide: B1 peptide with X24K, K25X
modifications: Aib2, αMeF(2F)6, 4Pal10, αMeL13, Orn16, Aib20, αMeY25, K17 and K24: K(AEEA-(γ-Glu)-CO-(CH2)12-CO2H), C-terminal NH2
B9: Example 78 (peptide)
peptide: B1 peptide with E21K, K25X
modifications: Aib2, αMeF(2F)6, 4Pal10, αMeL13, Orn16, Aib20, D-Glu24, αMeY25, K17 and K21: K(AEEA2-CO-(CH2)12-CO2H), C-terminal NH2
B10: Example 71 (peptide)
peptide: B1 peptide with K17I, X24K, K25X, P31K
modifications: Aib2, αMeF(2F)6, 4Pal10, αMeL13, Orn16, Aib20, αMeY25, K24 and K31: K(AEEA2-(γ-Glu)-CO-(CH2)12-CO2H), C-terminal NH2
B11: Example 76 (peptide)
peptide: B1 peptide with E21K, K25X
modifications: Aib2, αMeF(2F)6, 4Pal10, αMeL13, Orn16, Aib20, D-Glu24, αMeY25, K17 and K21: K(AEEA-(γ-Glu)-CO-(CH2)12-CO2H), C-terminal NH2
B12: Example 77 (peptide)
peptide: B1 peptide with E21K, K25X
modifications: Aib2, αMeF(2F)6, 4Pal10, αMeL13, Orn16, Aib20, D-Glu24, αMeY25, K17 and K21: K(AEEA3-(γ-Glu)-CO-(CH2)12-CO2H), C-terminal NH2
B13: Example 72 (peptide)
peptide: YXEGTXTSDXSIXLDXIAQXEFIKXLIEGGPSSGAPPPSK
modifications: Aib2, αMeF(2F)6, 4Pal10, αMeL13, Orn16, Aib20, αMeY25, K24 and K40: K(AEEA2-(γ-Glu)-CO-(CH2)12-CO2H), C-terminal NH2
B14: Example 75 (peptide)
peptide: B13 peptide with E21K, K24X
modifications: Aib2, αMeF(2F)6, 4Pal10, αMeL13, Orn16, Aib20, D-Glu24, αMeY25, K21 and K40: K(AEEA2-(γ-Glu)-CO-(CH2)12-CO2H), C-terminal NH2

Positions count from the first letter of the chain named. Bounds are passed on as bounds.

For the first experiment, the target named is human glucagon receptor (human, UniProt P47871 26-477). Put plainly: cell-based or functional assay.
For B1, the “EC50, cAMP” value was more than 9950 nM.
B2: the “EC50, cAMP” value is more than 9950 nM.
Still for that read-out and setting: for B3 the value was more than 9950 nM; for B4, more than 9950 nM.
As for B5, the “EC50, cAMP” value was more than 9950 nM.
Consider B6, for which the “EC50, cAMP” value is more than 9950 nM.
On the same count and under the same terms, for B7 the value was more than 9950 nM; for B8, more than 9950 nM.
On to B9, for which the “EC50, cAMP” value was more than 9950 nM.
The same measure, in the same setting: for B10 the value was more than 9950 nM; for B11, more than 9950 nM; for B12, more than 9950 nM.
Turning to B13, the “EC50, cAMP” value is more than 9950 nM.
Regarding B14, the “EC50, cAMP” value was more than 9950 nM.

The next experiment concerns the target T1, human GIP receptor. Put plainly: cell-based or functional assay.
On to B1, for which the “EC50, cAMP” value turned out to be 0.00795 nM.
Consider B2, for which the “EC50, cAMP” value was determined as 0.0265 nM and the “Emax, cAMP” value is 99%.
Consider B3, for which the “EC50, cAMP” value was 0.00307 nM.
As to B4, the “EC50, cAMP” value came to 0.0182 nM and the “Emax, cAMP” value was found to be 89.1%.
For the molecule B5, the “EC50, cAMP” value came to 0.0156 nM and the “Emax, cAMP” value came out at 93.3%.
B6: the “EC50, cAMP” value was 0.0105 nM.
With B7, the “EC50, cAMP” value was 0.0207 nM and the “Emax, cAMP” value was 97.1%.
For the molecule B8, the “EC50, cAMP” value is 0.013 nM.
In the case of B9, the “EC50, cAMP” value was 0.0145 nM.
Consider B10, for which the “EC50, cAMP” value was found to be 0.0171 nM and the “Emax, cAMP” value stood at 93.8%.
Take B11: the “EC50, cAMP” value was 0.0205 nM.
In the case of B12, the “EC50, cAMP” value amounted to 0.0288 nM.
As for B13, the “EC50, cAMP” value came to 0.016 nM and the “Emax, cAMP” value is 96.5%.
Consider B14, for which the “EC50, cAMP” value is 0.0182 nM and the “Emax, cAMP” value amounted to 92.3%.

In the next experiment the target is human GLP-1 receptor (human, UniProt P43220 24-463). The experiment in a line: cell-based or functional assay.
As for B1, the “EC50, cAMP” value was determined as 2.63 nM and the “Emax, cAMP” value was determined as 91.7%.
As to B2, the “EC50, cAMP” value was 0.276 nM.
Turning to B3, the “EC50, cAMP” value turned out to be 0.0157 nM.
Take B4: the “EC50, cAMP” value came out at 0.283 nM.
As for B5, the “EC50, cAMP” value was 0.334 nM.
On to B6, for which the “EC50, cAMP” value amounted to 0.668 nM and the “Emax, cAMP” value is 95.9%.
For B7, the “EC50, cAMP” value worked out at 0.437 nM.
On to B8, for which the “EC50, cAMP” value was 0.223 nM.
On to B9, for which the “EC50, cAMP” value turned out to be 0.286 nM.
Take B10: the “EC50, cAMP” value is 0.246 nM.
For B11, the “EC50, cAMP” value amounted to 0.527 nM.
Turning to B12, the “EC50, cAMP” value was found to be 3.03 nM and the “Emax, cAMP” value turned out to be 87%.
Turning to B13, the “EC50, cAMP” value came out at 0.245 nM.
B14: the “EC50, cAMP” value was 0.411 nM.
